Laboratory results: article PMC5467237

Target: T1, hCHCHD2 WT expressed in CHCHD2-/- MEFs (human), Q9Y6H1
T1 chain: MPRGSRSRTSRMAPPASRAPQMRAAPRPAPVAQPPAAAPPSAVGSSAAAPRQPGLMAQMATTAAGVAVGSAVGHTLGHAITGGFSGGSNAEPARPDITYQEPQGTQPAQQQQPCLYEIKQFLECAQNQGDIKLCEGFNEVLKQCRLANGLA
Experiment: cross-linking; hCHCHD2-expressing MEFs treated with or without 0.5 μg/ml DSP in PBS for 20 min at RT, lysed, western blot with anti-CHCHD2; ratio of monomer signals to total signals
Conditions: remark: other sources report otherwise

- monomer form as share of total CHCHD2 signals (% of total CHCHD2 signals): < 50
- stoichiometry N: 2
B1: hCHCHD2 WT expressed in CHCHD2-/- MEFs, Q9Y6H1 1-151 (natural protein)
chain: T1 chain
